These results are taken from patent US20110293610A1 (published 2011).

Experiment [1] addresses T1, HIS-tagged B Lymphocyte Stimulator (human, UniProt Q9Y275 71-285).
T1 construct: Expressed in E. coli from pQE9 and purified; also called histidine-tagged B Lymphocyte Stimulator; HIS-B Lymphocyte Stimulator; not shown: histidine tag of the pQE9 vector
As to the kind of experiment: BIAcore, purified scFv over low density (500 RU) HIS-BLyS surface. The procedure: The chip containing the low density HIS-B Lymphocyte Stimulator surface was inserted into the BIAcore. […] The dilution series was then injected sequentially over the blank control (flow cell 1) and low density HIS-B Lymphocyte Stimulator surface (flow cell 2) using the following program: […]
(In general: SPR reads the build-up and loss of mass on a sensor chip optically.)

Experiment [2] deals with T2, B Lymphocyte Stimulator, soluble form (human) (human, UniProt Q9Y275 134-285, biotinylated with NHS-biotin where used as biotinylated B Lymphocyte Stimulator).
T2 construct: Coated on plastic, captured on streptavidin plates, amine-coupled to a CM5 chip or free in solution, depending on the assay; also called BLyS; immobilized B Lymphocyte Stimulator
Briefly: BIAcore 2000, purified scFv over low density (500 RU) BLyS surface.

The target of experiment [3] is T2, B Lymphocyte Stimulator, soluble form …. As to the kind of experiment: cell-based or functional assay.
For experiment [4] the target is unchanged. Briefly: BIAcore, IgG1 captured on low-density Protein A surface, BLyS passed over. As to the method:
Briefly, antibodies were captured on low-density Protein A surfaces and B Lymphocyte Stimulator was passed over at various flow rates. The binding of B Lymphocyte Stimulator to immobilized antibody was detected by changes in […] that were proportional to the amount of bound B Lymphocyte Stimulator. Binding values were calculated using software provided by the manufacturer.

Experiment [5] has the same target. As to the kind of experiment: phage ELISA, biotinylated BLyS on streptavidin plates.
The target in the next experiment is T3, TNF-beta (human, UniProt P01374 35-205).
T3 construct: also called TNFβ; Tumour Necrosis Factor-beta
T3 sequence (looked up): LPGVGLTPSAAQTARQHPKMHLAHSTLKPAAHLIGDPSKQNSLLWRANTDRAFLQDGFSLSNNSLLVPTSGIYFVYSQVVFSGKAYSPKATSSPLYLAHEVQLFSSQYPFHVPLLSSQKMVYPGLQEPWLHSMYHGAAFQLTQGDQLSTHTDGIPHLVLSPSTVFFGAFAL
As to the kind of experiment: phage ELISA. On the technique in general: In an ELISA, binding on a coated surface is turned into a signal by an enzyme label.

The next experiment deals with LIGHT (human, UniProt O43557 74-240, limits assumed). As to the kind of experiment: phage ELISA.
The target of the next experiment is T4, TRAIL (human, UniProt P50591 114-281).
T4 construct: also called TNF-related apoptosis inducing ligand
Briefly: phage ELISA.

The target in another experiment is T5, Bovine serum albumin (bovine, UniProt P02769 25-607).
T5 construct: also called BSA
As to the kind of experiment: phage ELISA.

Another experiment has as its target T6, TNF-alpha (human, UniProt P01375 77-233).
T6 construct: also called TNFα; TNF-α
Briefly: phage ELISA.

In experiment [6] the target is T7, biotinylated B Lymphocyte Stimulator, soluble form (human, UniProt Q9Y275 134-285, biotinylated with NHS-biotin, molar ratio 20:1 biotin:protein).
T7 construct: also called bio-B Lymphocyte Stimulator; free B Lymphocyte Stimulator
As to the kind of experiment: purified scFv, receptor binding inhibition on IM9 cells.

T6 sequence (P01375 77-233 limits assumed): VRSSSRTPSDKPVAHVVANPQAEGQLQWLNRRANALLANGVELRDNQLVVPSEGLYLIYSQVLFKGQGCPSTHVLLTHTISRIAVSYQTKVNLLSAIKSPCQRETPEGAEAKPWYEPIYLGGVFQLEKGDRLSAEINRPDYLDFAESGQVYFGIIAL
Chain of LIGHT (O43557 74-240 limits assumed): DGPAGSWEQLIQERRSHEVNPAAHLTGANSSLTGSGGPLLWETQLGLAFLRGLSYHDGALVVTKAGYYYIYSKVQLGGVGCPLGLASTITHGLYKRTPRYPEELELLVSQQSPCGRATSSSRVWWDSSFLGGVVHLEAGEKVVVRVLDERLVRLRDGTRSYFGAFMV
T5 sequence (P02769 25-607 limits assumed): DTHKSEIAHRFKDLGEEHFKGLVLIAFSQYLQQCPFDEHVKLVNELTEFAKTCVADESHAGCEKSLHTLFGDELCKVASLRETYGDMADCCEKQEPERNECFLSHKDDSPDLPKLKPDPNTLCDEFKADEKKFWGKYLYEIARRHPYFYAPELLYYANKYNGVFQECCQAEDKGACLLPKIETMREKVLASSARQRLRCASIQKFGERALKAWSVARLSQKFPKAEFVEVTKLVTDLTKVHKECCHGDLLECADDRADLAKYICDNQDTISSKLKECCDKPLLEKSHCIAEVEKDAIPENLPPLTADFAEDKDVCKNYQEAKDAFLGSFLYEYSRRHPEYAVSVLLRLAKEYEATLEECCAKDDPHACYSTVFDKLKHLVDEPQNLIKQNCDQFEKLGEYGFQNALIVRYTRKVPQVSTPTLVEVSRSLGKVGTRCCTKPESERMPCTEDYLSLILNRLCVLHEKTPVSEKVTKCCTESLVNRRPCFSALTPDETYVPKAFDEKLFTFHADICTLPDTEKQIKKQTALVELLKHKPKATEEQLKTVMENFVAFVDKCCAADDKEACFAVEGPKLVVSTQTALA
T4 sequence (P50591 114-281 limits assumed): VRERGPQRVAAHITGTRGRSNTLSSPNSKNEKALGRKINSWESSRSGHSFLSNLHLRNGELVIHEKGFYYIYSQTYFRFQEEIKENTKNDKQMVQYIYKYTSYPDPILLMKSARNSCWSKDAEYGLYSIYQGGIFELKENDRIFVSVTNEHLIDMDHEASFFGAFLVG

B1: I082C03 (scFv)
scFv: QVQLVQSGSEVKKPGASVKVSCKTSGYSFTGYFIHWVRQAPGQGLEWMGWINPNSGGTNLAQKFQGRVTMTRDTSISTAYMELSSLKSDDTAVYYCARDASRDIVVLPLAIWGKGTLVTVSSGGGGSGGGGSGGGGSDIQMTQSPSTLSASIGDRVTITCRASEGIYHWLAWYQQKPGKAPKLLIYKASSLASGAPSRFSGSGSGTDFTLTISSLQPDDFATYYCQQYSNYPLTFGGGTKLEIKR
In experiment [1], B1 yielded a Kd of 20 nM and a dissociation rate constant (koff) of 0.002 s⁻¹.

B2: I003C02 (scFv)
scFv: EVQLVQSGAEVKKPGSSVKVSCQASGGNFNSYGVSWVRQAPGQGLEWMGRIIPNVGTANYAQKFQGRVTITADKLTSTVYLEVRSLRSEDTAVYYCARGDYDILTGYPAECFQIWGQGTMVTVSSGGGGSGGGGSGGGGSAQAVLTQPSSASGTPGQRVTISCSGSTSNIGTNTVNWYQQLPGTAPKLLIYSNHLRPSGVPDRFSGSKSGTSASLAISGLQSEDEADYYCSARDDSLNGVVFGGGTKVTVLG
On to B2, for which, in experiment [2], the koff worked out at 0.006 s⁻¹.

B3: I006D08 (whole IgG1) (antibody, V domains shown)
VH: QVQLQQSGAEVKKPGSSVRVSCKASGGTFNNNAINWVRQAPGQGLEWMGGIIPMFGTAKYSQNFQGRVAITADESTSTASMELSSLRSEDTAVYYCARSRDLLLFPHYGMDVWGRGTMVTVSS
VL: SSELTQDPAVSVALGQTVRVTCQGDSLRSYYASWYQQKPGQAPVLVIYGKNNRPSGIPDRFSGSSSGNTASLTITGAQAEDEADYYCNSRDSSGNHWVFGGGTELTVLG
notes: constant regions (human IgG1)
For B3, the “IC50 for the inhibition of human B Lymphocyte Stimulator induced-proliferation of murine B cells (3H-thymidine incorporation)” value in experiment [3] was determined as 0.09 nM. For the same molecule, in experiment [4], the “fold higher Kd than I116A01” value was ~2 fold and the “fold higher off rate (kd) than I116A01” value is 2 fold.

B4: I075F12 (scFv)
scFv: QVQLVQSGAEVKKPGSSVKVSCKASGGTVSSRTISWVRQAPGQGLEWMGGSLPPSGAPIYAQKFQGRVAITADALTNTAFMELRSLKSDDTAVYYCARDQGRYLDLWGQGTMVTVSSGGGGSGGGGSGGGGSAQAVLTQPSSASGTPGQRATISCSGSSSDIGINAVNWYKQLPRTAPKLLIYRNNQRPSGVPDRFSGSKSGTSASLAIIGLQSEDEADYYCATWDDSLTAYVFGTGTKVTVLG
Take B4: the binding result in experiment [5] is given as “binds”; with TNF-beta, “no binding”; in the experiment with LIGHT, “no binding”; with TRAIL it was “no binding”; in the experiment with Bovine serum albumin, “no binding”; in the experiment with TNF-alpha, “no binding”.

B5: I003F12S (scFv)
scFv: QVQLLQSAAELKKPGQSLKISCKGSGFTFTTYWIGWVRQLPGKGLEWMGIIYPGDSHTTYSPSFEGHVNISVDKSINTAYLQWSSLKASDTAMYYCARHDDDVLTGYYFESWGQGTMVTVSSGGGGSGGGGSGGGGSQSVLTQPASVSGSPGQSITISCTGTSSDVGGYNYVSWYQQHPGKAPKLMIYEGSKRPSGVSNRFSGSKSGNTASLTISGLQAEDEADYYCSSYTTRSTRVFGGGTKLTVLG
With B5, the binding result in experiment [6] is “binds”.

By Kd is commonly meant the constant that tells how readily two partners part at equilibrium. In general, koff refers to the first-order rate constant of dissociation.
